Test results: paper PMC6874086
Where two headings read alike, the source gives them in different places.

Experiments:
[1] = biological target: VPS4A/B (UniProt Q9UN37); conditions: parent: est. 100; read off a plot
[2] = biological target: VPS4A/B (UniProt Q9UN37); conditions: parent: est. 100; read off a plot; remark: listed apart in the source

UniProt Q9UN37, sequence (Q9UN37 whole entry): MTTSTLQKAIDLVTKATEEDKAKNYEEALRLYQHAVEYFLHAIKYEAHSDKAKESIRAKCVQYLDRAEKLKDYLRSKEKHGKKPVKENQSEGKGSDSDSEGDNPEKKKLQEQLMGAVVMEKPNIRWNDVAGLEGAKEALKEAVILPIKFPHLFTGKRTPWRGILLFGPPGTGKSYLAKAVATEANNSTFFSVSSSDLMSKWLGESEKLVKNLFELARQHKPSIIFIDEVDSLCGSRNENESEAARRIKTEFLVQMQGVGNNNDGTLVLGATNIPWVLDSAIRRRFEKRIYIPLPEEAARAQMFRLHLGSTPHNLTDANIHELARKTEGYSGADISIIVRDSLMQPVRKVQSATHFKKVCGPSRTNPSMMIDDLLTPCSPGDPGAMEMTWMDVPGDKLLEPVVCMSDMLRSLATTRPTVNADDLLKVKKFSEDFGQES

LCMV Z WT with a C-terminal streptavidin binding peptide (SBP) tag (from UniProt P18541) K5R; K10R; K33R; K38R; K69R; K77R
percent of parent [1]: 23 % of WT | percent of parent [2]: 24 % of WT
